In publication PMC8287830, “(S)-3-Hydroxybutyryl-CoA Dehydrogenase From the Autotrophic 3-Hydroxypropionate/4-Hydroxybutyrate Cycle in Nitrosopumilus maritimus” (Frontiers in Microbiology, 2021):

What was measured:
[1] = substrate: CC(=O)CC(=O)SCCNC(=O)CCNC(=O)[C@H](O)C(C)(C)COP(=O)(O)OP(=O)(O)OC[C@H]1O[C@@H](n2cnc3c(N)ncnc32)[C@H](O)[C@@H]1OP(=O)(O)O; test: purified protein; format: biochemical, Nitrosopumilus maritimus; conditions: 0.5 mM NADH, 100 mM Tris-HCl pH 7.8, 30°C, reverse reaction, monomeric enzyme
[2] = substrate: C[C@H](O)CC(=O)SCCNC(=O)CCNC(=O)[C@H](O)C(C)(C)COP(=O)(O)OP(=O)(O)OC[C@H]1O[C@@H](n2cnc3c(N)ncnc32)[C@H](O)[C@@H]1OP(=O)(O)O; test: purified protein; format: biochemical, Nitrosopumilus maritimus; conditions: 2 mM NAD, 100 mM Tris-HCl pH 7.8, 30°C, forward reaction, monomeric enzyme
[3] = substrate: NC(=O)C1=CN([C@@H]2O[C@H](COP(=O)(O)OP(=O)(O)OC[C@H]3O[C@@H](n4cnc5c(N)ncnc54)[C@H](O)[C@@H]3O)[C@@H](O)[C@H]2O)C=CC1; test: purified protein; format: biochemical, Nitrosopumilus maritimus; conditions: 0.2 mM acetoacetyl-CoA, 100 mM Tris-HCl pH 7.8, 30°C, reverse reaction, monomeric enzyme
[4] = substrate: NC(=O)c1ccc[n+]([C@@H]2O[C@H](COP(=O)(O)OP(=O)(O)OC[C@H]3O[C@@H](n4cnc5c(N)ncnc54)[C@H](O)[C@@H]3O)[C@@H](O)[C@H]2O)c1; test: purified protein; format: biochemical, Nitrosopumilus maritimus; conditions: 0.2 mM (S)-3-hydroxybutyryl-CoA, 100 mM Tris-HCl pH 7.8, 30°C, forward reaction, monomeric enzyme
[5] = substrate: NC(=O)c1ccc[n+]([C@@H]2O[C@H](COP(=O)(O)OP(=O)(O)OC[C@H]3O[C@@H](n4cnc5c(N)ncnc54)[C@H](OP(=O)(O)O)[C@@H]3O)[C@@H](O)[C@H]2O)c1; test: purified protein; format: biochemical, Nitrosopumilus maritimus; conditions: 0.2 mM (S)-3-hydroxybutyryl-CoA, 100 mM Tris-HCl pH 7.8, 30°C, forward reaction, monomeric enzyme
[6] = target: the molecule itself; test: SEC; Superdex 200 Increase (24 ml), 0.75 ml/min, 20 mM Tris-HCl pH 7.8, 150 mM KCl; native mass from a standard curve (apoferritin, alcohol dehydrogenase, BSA, carbonic anhydrase)

B1: (S)-3-hydroxybutyryl-CoA dehydrogenase Nmar_1028 (enzyme, Nitrosopumilus maritimus SCM1, UniProt A9A3J2 1-379, looked up)
chain: MAVKNITILGSGVMGHGIAQVSATAGYNVVLRDIEQGFLDKAMEKIRWSLDKLVSKEKISKEEGDSIFGRITPVVDLKEAVKDAELVIEVVPEIMDLKKKVYAELDEVAAPEVIFASNTSTLPITEIANTTSRPDKFIGIHFFNPPQLMKLVEVIPGEKTSQEITDLTKDYVKSVNKQAVLCRKDVPGFIINRLFIPMVHEACYAKDRTGATLEEIDSAVKFNLGFPMGIFELADFTGMDVIHKATVEMHLRDKKVINPHPTVEKMFDEKKLGQKSGEGYYKYSDDKYERVELSQELAQKFNPIQLVANILNNAAWLVTNGASDIEEIEKAAQLGLGLKKPLFETAKEIGIKNIVDELNKLAEEHGEFYKPDPLLTSMQ
notes: (S)-3-hydroxybutyryl-CoA dehydrogenase Nmar_1028 of Nitrosopumilus maritimus strain SCM1; gene amplified from genomic DNA from the initiation codon to after the stop codon; predicted size 44.8 kDa; No removal of the His10 tag is described; also called HBDH; source: E. coli Rosetta 2 (DE3), purified (Ni-NTA)
Km [1]: 26 ± 4 µM | Vmax [1]: 145 µmol/min/mg | kcat [1]: 108 s⁻¹ | kcat/Km [1]: 4.04e+06 M⁻¹ s⁻¹ | Km [2]: 19 ± 2 µM | Vmax [2]: 98.6 µmol/min/mg | kcat [2]: 74 s⁻¹ | kcat/Km [2]: 3.88e+06 M⁻¹ s⁻¹ | Km [3]: 16 ± 6 µM | Vmax [3]: 113 µmol/min/mg | kcat/Km [3]: 5.27e+06 M⁻¹ s⁻¹ | Km [4]: 100 ± 20 µM | Vmax [4]: 84.4 µmol/min/mg | kcat/Km [4]: 630000 M⁻¹ s⁻¹ | Km [5]: 2920 ± 630 µM | Vmax [5]: 10.1 µmol/min/mg | kcat/Km [5]: 3000 M⁻¹ s⁻¹ | stoichiometry N [6]: 2
